Test results reported in patent EP4582451A1 (Changchun Genescience Pharmaceutical Co., Ltd., dated 2025).
Changes are numbered by the printed parent chain. Where two headings read alike, the source gives them in different places. Blank lines part the entries; values can stand above or below the binder they belong to.

Experiments:
[1] = target: T1, mouse thyroid-stimulating hormone receptor (TSHR) (mouse, UniProt P47750 22-764); assay: flow cytometry (FACS), 293 cells overexpressing mouse TSHR
T1 construct: whole, on cells; Overexpressed on 293 cells; also called mouse TSHR; murine TSHR

[2] = target: T2, human thyroid-stimulating hormone receptor (TSHR) (human, UniProt P16473 21-764); assay: flow cytometry (FACS), 293 cells overexpressing human TSHR
T2 construct: whole, on cells; Overexpressed on 293 cells; also called human TSHR

[3] = target: T3, monkey thyroid-stimulating hormone receptor (TSHR) (monkey, UniProt A0A2K5X226 21-764); assay: flow cytometry (FACS), 293 cells overexpressing monkey TSHR
T3 construct: Overexpressed on 293 cells; also called monkey TSHR

[4] = target: T3, monkey thyroid-stimulating hormone …; assay: as above; remark: listed apart in the source
[5] = target: T2, human thyroid-stimulating hormone …; assay: flow cytometry (FACS), 293 cells overexpressing human TSHR; remark: listed apart in the source
[6] = target: T1, mouse thyroid-stimulating hormone …; assay: flow cytometry (FACS), 293 cells overexpressing mouse TSHR; remark: listed apart in the source
[7] = target: T2, human thyroid-stimulating hormone …; assay: flow cytometry (FACS), 293 cells overexpressing human TSHR; remark: listed apart in the source
[8] = target: T4, hFcRn-Avi (Biosystems, FCM-H82W7) (human (printed as hFcRn), UniProt P55899 24-297; P61769 21-119, biotin on the Avi tag is implied by capture on an SA chip); assay: SPR (Biacore 8K+), hFcRn-Avi captured on SA chip, antibody in flow, pH 6.0, 25 C, steady-state fit
T4 construct: Bought reagent

[9] = target: T2, human thyroid-stimulating hormone …; assay: cell-based or functional assay
[10] = target: T3, monkey thyroid-stimulating hormone …; assay: flow cytometry (FACS), 293 cells overexpressing monkey TSHR; remark: listed apart in the source
[11] = target: T1, mouse thyroid-stimulating hormone …; assay: flow cytometry (FACS), 293 cells overexpressing mouse TSHR; remark: listed apart in the source
[12] = target: T1, mouse thyroid-stimulating hormone …; assay: as above; remark: listed apart in the source
[13] = target: T2, human thyroid-stimulating hormone …; assay: cell-based or functional assay; remark: listed apart in the source
[14] = target: T3, monkey thyroid-stimulating hormone …; assay: flow cytometry (FACS), 293 cells overexpressing monkey TSHR; remark: listed apart in the source

T3 sequence (A0A2K5X226 entry or part of it limits assumed, form in doubt): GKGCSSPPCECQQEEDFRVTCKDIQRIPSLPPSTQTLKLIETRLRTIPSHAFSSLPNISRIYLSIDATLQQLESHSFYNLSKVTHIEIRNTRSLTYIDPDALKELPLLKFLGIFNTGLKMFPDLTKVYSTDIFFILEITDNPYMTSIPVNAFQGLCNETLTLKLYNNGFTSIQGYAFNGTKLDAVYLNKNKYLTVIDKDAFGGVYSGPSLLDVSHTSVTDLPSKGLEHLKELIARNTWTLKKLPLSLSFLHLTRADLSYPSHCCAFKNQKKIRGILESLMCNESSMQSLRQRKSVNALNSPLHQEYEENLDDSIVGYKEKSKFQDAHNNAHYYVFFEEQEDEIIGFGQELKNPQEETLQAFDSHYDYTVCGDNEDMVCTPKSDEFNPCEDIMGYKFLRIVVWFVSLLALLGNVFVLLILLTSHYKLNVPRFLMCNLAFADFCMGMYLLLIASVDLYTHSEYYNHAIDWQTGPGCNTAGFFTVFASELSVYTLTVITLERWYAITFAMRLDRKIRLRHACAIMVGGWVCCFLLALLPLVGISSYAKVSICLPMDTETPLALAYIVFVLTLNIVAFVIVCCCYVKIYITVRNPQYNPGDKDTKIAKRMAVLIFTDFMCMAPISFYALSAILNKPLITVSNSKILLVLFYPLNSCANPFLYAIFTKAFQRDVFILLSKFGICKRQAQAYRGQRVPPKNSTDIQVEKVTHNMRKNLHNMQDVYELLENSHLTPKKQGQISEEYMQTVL
T1 sequence (P47750 22-764): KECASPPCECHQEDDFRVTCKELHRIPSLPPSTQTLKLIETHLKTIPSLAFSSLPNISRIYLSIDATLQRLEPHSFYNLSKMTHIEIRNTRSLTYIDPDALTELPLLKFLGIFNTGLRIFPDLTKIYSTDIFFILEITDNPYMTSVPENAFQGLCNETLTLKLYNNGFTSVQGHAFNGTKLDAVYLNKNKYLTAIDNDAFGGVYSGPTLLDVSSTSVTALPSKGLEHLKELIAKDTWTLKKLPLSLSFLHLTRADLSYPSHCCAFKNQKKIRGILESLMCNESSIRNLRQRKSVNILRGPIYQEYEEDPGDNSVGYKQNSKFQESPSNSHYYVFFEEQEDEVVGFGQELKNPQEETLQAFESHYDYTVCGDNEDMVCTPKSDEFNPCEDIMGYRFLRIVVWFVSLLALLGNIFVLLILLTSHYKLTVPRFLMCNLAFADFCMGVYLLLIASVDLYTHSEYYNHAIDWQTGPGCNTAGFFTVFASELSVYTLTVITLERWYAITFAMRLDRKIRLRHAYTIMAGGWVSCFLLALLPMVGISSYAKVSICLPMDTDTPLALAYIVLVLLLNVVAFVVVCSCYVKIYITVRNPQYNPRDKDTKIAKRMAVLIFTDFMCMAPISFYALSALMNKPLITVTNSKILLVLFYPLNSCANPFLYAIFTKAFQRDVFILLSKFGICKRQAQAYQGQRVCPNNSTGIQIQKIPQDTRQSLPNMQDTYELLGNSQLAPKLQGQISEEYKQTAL
T2 sequence (P16473 21-764): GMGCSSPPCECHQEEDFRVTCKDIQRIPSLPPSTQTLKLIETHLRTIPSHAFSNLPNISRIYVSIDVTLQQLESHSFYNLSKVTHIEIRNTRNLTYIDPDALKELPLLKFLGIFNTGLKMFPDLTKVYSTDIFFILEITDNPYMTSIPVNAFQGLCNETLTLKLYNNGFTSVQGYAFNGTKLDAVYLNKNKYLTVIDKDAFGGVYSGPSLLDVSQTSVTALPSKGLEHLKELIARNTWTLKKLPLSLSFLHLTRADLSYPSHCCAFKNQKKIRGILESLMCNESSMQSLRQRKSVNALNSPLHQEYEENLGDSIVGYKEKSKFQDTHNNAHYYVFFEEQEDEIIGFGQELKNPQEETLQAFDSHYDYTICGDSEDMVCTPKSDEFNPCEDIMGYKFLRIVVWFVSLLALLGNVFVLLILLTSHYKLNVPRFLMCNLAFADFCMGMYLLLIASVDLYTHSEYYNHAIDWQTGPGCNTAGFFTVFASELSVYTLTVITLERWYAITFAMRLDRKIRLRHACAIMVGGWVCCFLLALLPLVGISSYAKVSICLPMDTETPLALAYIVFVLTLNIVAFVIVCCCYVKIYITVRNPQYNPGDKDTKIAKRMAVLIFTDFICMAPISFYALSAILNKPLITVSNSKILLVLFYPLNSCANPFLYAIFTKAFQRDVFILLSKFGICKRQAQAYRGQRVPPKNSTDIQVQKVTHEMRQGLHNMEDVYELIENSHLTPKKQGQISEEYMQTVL

B2: humanized antibody cAb12-VH1-QG&S-VL3 (antibody, human IgG4 S228P, kappa, V domains shown)
VH: QVQLVQSGAEVKKPGASVKVSCKASGYTFTDYYMNWVRQAPGQGLEWMGVINPYQGESSNNQKFKGRVTMTRDTSTSTVYMELSSLRSEDTAVYYCARSYGYGYYFDYWGQGTTVTVSS
VL: AIQLTQSPSSLSASVGDRVTITCSATSSVTYMHWYQQKPGKAPKRWIYDTSKLTSGVPPRFSGSGSGTDYTLTISSLQPEDFATYYCQQWSTYPYTFGGGTKLEIKR
notes: Humanized from mAb012
EC50 [4]: 8.1 nM
Maximum binding signal [4]: 269000
EC50 [5]: 10.5 nM
Maximum binding signal [5]: 420000
EC50 [6]: 14 nM
Maximum binding signal [6]: 98800

B6: humanized antibody cAb21-VH2-VL2 (antibody, human IgG4 S228P, kappa, V domains shown)
VH: QVQLVQSGAEVKKPGASVKVSCKASGYTFSNYWMQWVRQAPGQGLEWIGEIDPADSYTAYSQKFKGRATMTVDTSTSTVYMELSSLRSEDTAVYYCARRNLLRSGDYWGQGTLVTVSS
VL: AIQLTQSPSSLSASVGDRVTITCSASSGITYIHWYQQKPGKAPKRWIYDSSKLASGVPSRFSGSGSGTDYTLTISSLQPEDFATYYCQQWSGNPPTFGQGTKLEIKR
notes: Humanized from mAb021
EC50 [4]: 9.3 nM
Maximum binding signal [4]: 313000
EC50 [5]: 10.4 nM
Maximum binding signal [5]: 402000
EC50 [6]: 11.9 nM
Maximum binding signal [6]: 175000

B8: hAb01_G4P_V1 (antibody, human IgG4 S228P, kappa)
heavy: EVQLVESGGGLVKPGGSLRLSCAASGFTLSDYYIYWVRQAPGKGLEWVATISDAVIYTYYADSVKGRFTISRDNAKNSLYLQMNSLRAEDTAVYFCARAYGSSEVMDYWGQGTLVTVSSASTKGPSVFPLAPCSRSTSESTAALGCLVKDYFPEPVTVSWNSGALTSGVHTFPAVLQSSGLYSLSSVVTVPSSSLGTKTYTCNVDHKPSNTKVDKRVESKYGPPCPPCPAPEFLGGPSVFLFPPKPKDTLYITREPEVTCVVVDVSQEDPEVQFNWYVDGVEVHNAKTKPREEQFNSTYRVVSVLTVLHQDWLNGKEYKCKVSNKGLPSSIEKTISKAKGQPREPQVYTLPPSQEEMTKNQVSLTCLVKGFYPSDIAVEWESNGQPENNYKTTPPVLDSDGSFFLYSRLTVDKSRWQEGNVFSCSVMHEALHNHYTQKSLSLSLGK
light: EIVLTQSPATLSLSPGERATLSCSASSSVSYMHWYQQKPGQAPKRWIYDTSKLASGVPARFSGSGSGTDYTLTISSLEPEDFAVYYCQQWSSNPWTFGGGTKLEIKRTVAAPSVFIFPPSDEQLKSGTASVVCLLNNFYPREAKVQWKVDNALQSGNSQESVTEQDSKDSTYSLSSTLTLSKADYEKHKVYACEVTHQGLSSPVTKSFNRGEC
notes: also called hAb01_G4_V1
EC50 [7]: 5.82 nM
Max_MFI [7]: 282000
Kd [8]: 119 nM
Response value (RU) [8]: 73.1 RU
IC50 (nM), cAMP in 293-human TSHR cells activated by Tab01 [9]: 2.95 nM
IC50 (nM), cAMP in 293-human TSHR cells activated by Tab02 [9]: 2.74 nM
Maximum inhibition rate (%), cAMP in 293-human TSHR cells activated by Tab01 [9]: 105%
Maximum inhibition rate (%), cAMP in 293-human TSHR cells activated by Tab02 [9]: 100%
EC50 [10]: 2.77 nM
Max_MFI [10]: 190000
EC50 [11]: 2.35 nM
Max_MFI [11]: 138000

B9: hAb01_G1 (antibody, human IgG1, kappa)
heavy: not shown
light: B8 light
notes: Same variable regions as hAb01_G4P, constant region subtype hIgG1
Kd [8]: 189 nM
Response value (RU) [8]: 60.7 RU

B11: hAb01_G4P_V2 (antibody, human IgG4 S228P, kappa)
heavy: B8 heavy with L234E
light: B8 light
notes: also called hAb01_G4_V2
EC50 [7]: 4.64 nM
Max_MFI [7]: 287000
Kd [8]: 121 nM
Response value (RU) [8]: 73.5 RU
IC50 (nM), cAMP in 293-human TSHR cells activated by Tab01 [9]: 4.18 nM
IC50 (nM), cAMP in 293-human TSHR cells activated by Tab02 [9]: 4.38 nM
Maximum inhibition rate (%), cAMP in 293-human TSHR cells activated by Tab01 [9]: 106%
Maximum inhibition rate (%), cAMP in 293-human TSHR cells activated by Tab02 [9]: 100%
EC50 [10]: 2.94 nM
Max_MFI [10]: 189000
EC50 [11]: 2.43 nM
Max_MFI [11]: 135000

B12: humanized antibody cAb01-VH1-DA-VL2 (antibody, human IgG4 S228P, kappa, V domains shown)
VH: EVQLVESGGGLVKPGGSLRLSCAASGFTLSDYYIYWVRQAPGKGLEWVSTISDAVIYTYYADSVKGRFTISRDNAKNSLYLQMNSLRAEDTAVYYCARAYGSSEVMDYWGQGTLVTVSS
VL: EIVLTQSPATLSLSPGERATLSCSASSSVSYMHWYQQKPGQAPRRWIYDTSKLASGIPARFSGSGSGTDYTLTISSLEPEDFAVYYCQQWSSNPWTFGGGTKLEIKR
notes: Humanized from mAb001
EC50 [12]: 2.4 nM
Maximum binding signal [12]: 113000
IC50(nM), cAMP in 293-human TSHR cells activated by Tab01 (30 nM) [13]: 1.3 nM
IC50(nM), cAMP in 293-human TSHR cells activated by Tab02 (6.5 nM) [13]: 0.91 nM
Inhibition rate (%), cAMP in 293-human TSHR cells activated by Tab01 (30 nM) [13]: 85.6%
Inhibition rate (%), cAMP in 293-human TSHR cells activated by Tab02 (6.5 nM) [13]: 87.4%
EC50 [14]: 2.19 nM
Maximum binding signal [14]: 187000

Next, values leading:

EC50 [1]: 10.3 nM
Maximum binding signal [1]: 31600
EC50 [2]: 3.5 nM
Maximum binding signal [2]: 52000
EC50 [3]: 4.5 nM
Maximum binding signal [3]: 42400
B1: murine antibody mAb021 (antibody, V domains shown)
VH: QVQLQQPGAEHVQPGASVKLSCKASGYTFSNYWMQWVRQRPGQGLDWIGEIDPADSYTAYSQKFKGKATLTVDTSSTTAYMQLSSLTSEDSAVYYCARRNLLRSGDYWGQGTSLTVSS
VL: QIVLTQSPAIMSASPGEKVTMTCSASSGITYIHWYQQKSGTSPKRWIYDSSKLASGVPARFSGSGSGTSYSLTISSMEAEDAATYYCQQWSGNPPTFGAGTKLEVK
notes: Murine monoclonal antibody from hybridoma

EC50 [4]: 9.2 nM
Maximum binding signal [4]: 303000
EC50 [5]: 6.5 nM
Maximum binding signal [5]: 445000
EC50 [6]: 15 nM
Maximum binding signal [6]: 135000
B3: humanized antibody cAb12-VH3-QG&S-VL3 (antibody, human IgG4 S228P, kappa, V domains shown)
VH: B2 VH with R38K, M48I, V68A, R72V, T74K
VL: B2 VL
notes: Humanized from mAb012

EC50 [1]: 2.52 nM
Maximum binding signal [1]: 11800
EC50 [2]: 1.28 nM
Maximum binding signal [2]: 21000
EC50 [3]: 0.98 nM
Maximum binding signal [3]: 13600
B4: murine antibody mAb001 (antibody, V domains shown)
VH: EVQLVESGGGLVKPGGSLKLSCAASGFTLSDYYIYWVRQTPEKRLEWVATISDGVIYTYYADSVKGRFTISRDNAKNNLYLQMSSLKSEDTAMYFCARAYGSSEVMDYWGQGTSVTVSS
VL: QIVLTQSPAVLSASPGEKVTMTCSASSSVSYMHWYQQKSGTSPKRWIYDTSKLASGVPARFSGSGSGTSYSLTISSMEAEDAATYYCQQWSSNPWTFGGGTKLEIK
notes: as for B1

EC50 [1]: 8.65 nM
Maximum binding signal [1]: 20800
EC50 [2]: 4.74 nM
Maximum binding signal [2]: 30000
EC50 [3]: 2.8 nM
Maximum binding signal [3]: 24400
B5: murine antibody mAb012 (antibody, V domains shown)
VH: EVQLQQSGPVLLKPGASVKMSCKASGYTFTDYYMNWVKQSHGKSLEWIGVINPYNGESSNNQKFKGKATMTVDKSSSTAYMELNSLTSEDSAVYYCARCYGYGYYFDYWGQGTTLSVAS
VL: B4 VL with V10I, L11M, S26T, S30T, A54T, A59P, S92T, N93Y, W95Y
notes: as for B1

EC50 [4]: 7.8 nM
Maximum binding signal [4]: 308000
EC50 [5]: 8.7 nM
Maximum binding signal [5]: 398000
EC50 [6]: 10.4 nM
Maximum binding signal [6]: 185000
B7: humanized antibody cAb21-VH1-VL3 (antibody, human IgG4 S228P, kappa, V domains shown)
VH: B6 VH with I48M, A68V, V72R
VL: B6 VL with S59A
notes: Humanized from mAb021

EC50 [12]: 2.09 nM
Maximum binding signal [12]: 129000
IC50(nM), cAMP in 293-human TSHR cells activated by Tab01 (30 nM) [13]: 0.29 nM
IC50(nM), cAMP in 293-human TSHR cells activated by Tab02 (6.5 nM) [13]: 0.23 nM
Inhibition rate (%), cAMP in 293-human TSHR cells activated by Tab01 (30 nM) [13]: 84%
Inhibition rate (%), cAMP in 293-human TSHR cells activated by Tab02 (6.5 nM) [13]: 82.8%
EC50 [14]: 2.29 nM
Maximum binding signal [14]: 225000
B10: humanized antibody cAb01-VH3-DA-VL2 (antibody, human IgG4 S228P, kappa, V domains shown)
VH: B12 VH with G44R, S49A, Y95F
VL: B12 VL
notes: Humanized from mAb001
